We go through 3 molecules from US20210388105A1 (ELPISCIENCE SUZHOU BIOPHARMA, published 2021).

The target in experiment [1] is T1, human CD39 (full length, on cells) (human, UniProt P49961 1-510).
T1 construct: Recombinant on CHOK1-hCD39 cells or natural on SK-MEL-28, SK-MEL-5 and MOLP-8 cells; the cell line is named under assay; also called hCD39; ENTPD1
T1 sequence: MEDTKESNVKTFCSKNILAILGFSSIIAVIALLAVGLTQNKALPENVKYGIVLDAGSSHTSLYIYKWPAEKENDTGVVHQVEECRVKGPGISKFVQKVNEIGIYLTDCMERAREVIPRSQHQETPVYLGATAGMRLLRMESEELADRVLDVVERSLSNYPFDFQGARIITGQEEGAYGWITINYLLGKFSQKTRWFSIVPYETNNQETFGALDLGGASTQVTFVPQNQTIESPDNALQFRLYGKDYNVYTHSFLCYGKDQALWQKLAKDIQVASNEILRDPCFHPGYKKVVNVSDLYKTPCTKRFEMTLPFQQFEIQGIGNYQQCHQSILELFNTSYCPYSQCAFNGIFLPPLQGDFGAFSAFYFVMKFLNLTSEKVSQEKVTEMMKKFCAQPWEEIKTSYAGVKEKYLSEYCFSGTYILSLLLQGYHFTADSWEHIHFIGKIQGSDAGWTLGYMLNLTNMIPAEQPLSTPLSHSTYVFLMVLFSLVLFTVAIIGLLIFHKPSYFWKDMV
As to the kind of experiment: FACS competition on CHOK1-hCD39; competitor mAb21-Alexa488. On the procedure: (§1) Anti-CD39 antibodies were labeled using Alex488 labeling kit and were diluted in a series of concentrations, before mixing with CHOK1-hCD39 cells to test binding EC₅₀using FACS. The non-labeled antibodies were tested for their blocking efficacy to the labelled ones. Briefly, mononuclear CHOK1-hCD39 cells were prepared to 2×10⁶/ml and plated into 96 well at 50 μl/well, then mixed with antibodies gradients to final volume at 100 μl, and then equal volume of Alex488 label antibodies were added at two folds EC80 concentration. 96 well plates were incubated at 4° C. for 1 hour, and spun down and washed 3 times with 200 μl FACS buffer. The FACS analysis was performed on FACScelesta machine and data was analyzed by Flowjo software. The blocking percentages were calculated and those having above 80% competition rate were allocated into one epitope group, compared with the non-competing well (Alex488 labeled antibody only).
(§2) Based on the competition results, the 4 anti-CD39 hybridoma antibodies (mAb14, mAb19, mAb21, mAb23) can be grouped into 4 different epitope groups, as shown in Table 11.

The target of experiment [2] is T2, mouse CD39 (full length, on CHOK1-mCD39 cells) (mouse, UniProt P55772 1-510).
T2 construct: whole, on cells
T2 sequence (looked up): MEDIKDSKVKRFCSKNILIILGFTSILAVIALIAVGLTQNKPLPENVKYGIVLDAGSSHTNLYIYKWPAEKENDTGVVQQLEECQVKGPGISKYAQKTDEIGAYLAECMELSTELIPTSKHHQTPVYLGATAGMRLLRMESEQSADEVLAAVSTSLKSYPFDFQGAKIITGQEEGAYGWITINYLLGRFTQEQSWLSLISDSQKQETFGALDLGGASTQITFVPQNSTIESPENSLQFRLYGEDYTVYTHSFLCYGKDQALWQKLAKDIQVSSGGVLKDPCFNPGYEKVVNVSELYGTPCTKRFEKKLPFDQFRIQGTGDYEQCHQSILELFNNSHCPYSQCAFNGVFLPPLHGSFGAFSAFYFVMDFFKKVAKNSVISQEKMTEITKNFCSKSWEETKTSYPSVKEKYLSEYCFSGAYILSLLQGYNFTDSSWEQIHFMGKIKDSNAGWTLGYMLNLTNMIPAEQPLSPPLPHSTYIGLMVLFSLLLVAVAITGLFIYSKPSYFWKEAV
The experiment in a line: FACS, CHOK1-mCD39 cells. The source says:
(§3) FACS were used to determine binding of the antibodies to cell lines expressing CD39 naturally (SK-MEL-28) or recombinantly (CHOK1-hCD39, CHOK1-cynoCD39, and CHOK1-mCD39), or with cells lacking CD39 expression (CHOK1-blank) as a negative control.
(§4) CHOK1-hCD39, CHOK1-cCD39, CHOK1-mCD39 and CHOK1-blank cells were maintained in culture medium according to ATCC procedure. Cells were collected and re-suspended in blocking buffer at a density of 3×10⁶ cells/ml. Cells were transferred to 96 well FACS plates at 100 μl/well (3×10⁵ cells/well), the plates were centrifuged and washed twice with FACS buffer (PBS, 1% FBS, 0.05% Tween-20). 4-folds serial dilution of anti-CD39 antibodies were prepared in FACS buffer starting from 30 μg/ml. Reference antibody 9-8B and mouse/human control IgG were used as positive and negative controls, respectively. Cells were re-suspended in 100 μL/well diluted antibodies, and the plates were incubated at 4° C. for 60 min. […] The plates were washed with FACS buffer, and cells were re-suspended in 100 μL/well of PBS. Cells were then analyzed with FACSVerse™ and mean fluorescence intensity were determined. Full binding curves were generated on the CD39 expressing cells by testing a range of antibody concentrations. Apparent affinity was determined for each antibody using Prism software.
For orientation: In flow cytometry, cells or beads pass a laser one at a time.

The target of experiment [3] is T1, human CD39 (full length, on cells). As to the kind of experiment: FACS competition on CHOK1-hCD39; competitor 9-8B-Alexa488. On the procedure:
as §1, §2

Experiment [4] has the same target. As to the kind of experiment: cell-based or functional assay.
The target is the same in experiment [5]. As to the kind of experiment: FACS competition on CHOK1-hCD39; competitor mAb23-Alexa488. On the procedure:
as §1, §2

For experiment [6] the target is unchanged. As to the kind of experiment: FACS, CHOK1-hCD39 cells.
Source text: as §3, §4

For experiment [7] the target is unchanged. As to the kind of experiment: FACS competition on CHOK1-hCD39; competitor mAb14-Alexa488. On the procedure:
as §1, §2

Experiment [8] addresses T3, cynomolgus CD39 (full length, on CHOK1-cynoCD39 cells) (cynomolgus monkey, UniProt A0A7N9DGH8 1-510).
T3 construct: whole, on cells; also called cCD39
T3 sequence: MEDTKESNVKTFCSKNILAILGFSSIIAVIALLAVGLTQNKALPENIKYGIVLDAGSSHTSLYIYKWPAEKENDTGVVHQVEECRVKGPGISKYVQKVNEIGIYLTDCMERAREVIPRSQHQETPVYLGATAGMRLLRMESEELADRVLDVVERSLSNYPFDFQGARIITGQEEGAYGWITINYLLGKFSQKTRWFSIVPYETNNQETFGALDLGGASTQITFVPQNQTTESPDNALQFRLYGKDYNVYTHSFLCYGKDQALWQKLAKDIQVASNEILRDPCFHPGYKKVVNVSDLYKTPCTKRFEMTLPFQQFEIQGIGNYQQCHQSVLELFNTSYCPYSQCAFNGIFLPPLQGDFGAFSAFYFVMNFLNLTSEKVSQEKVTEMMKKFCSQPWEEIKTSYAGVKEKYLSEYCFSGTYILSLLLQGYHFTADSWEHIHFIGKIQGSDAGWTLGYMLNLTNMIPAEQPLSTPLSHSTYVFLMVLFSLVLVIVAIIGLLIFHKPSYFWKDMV
The experiment in a line: FACS, CHOK1-cynoCD39 cells.
Source text: as §3, §4

In experiment [9] the target is T1, human CD39 (full length, on cells). As to the kind of experiment: FACS competition on CHOK1-hCD39; competitor mAb19-Alexa488. On the procedure: as §1, §2
The target is the same in experiment [10]. As to the kind of experiment: FACS, SK-MEL-28 cells. On the procedure: as §3
(§5) Similarly, human CD39 expressing cells SK-MEL-5, SK-MEL-28 or MOLP-8, were incubated with a gradient concentration of anti-CD39 antibodies for 30 minutes at 4° C. Cells were washed 3 times using FACS buffer and next incubated with fluorescence labelled secondary antibody (goat-anti-mouse IgG or goat anti-human IgG) for 30 minutes at 4° C. Cells were washed 3 times and then re-suspended in FACS buffer and analyzed by flow cytometry analysis on BD Celesta. Data plotted and analyzed using GraphPad Prism 8.02.

The target is the same in experiment [11]. As to the kind of experiment: FACS, MOLP-8 cells. On the procedure: as §5
The binding affinity of the humanized antibodies for c23 was determined by FACS, using similar methods as described in Example 3.2. The c23 humanized antibody clones showing good binding affinity are listed in below Table 19 and Table 20, and also shown in FIGS. 7A, 7B and FIG. 8. EC₅₀ is the concentration of the indicated antibodies to reach 50% of the signal in this assay.

For experiment [12] the target is unchanged. As to the kind of experiment: cell-based or functional assay. This is another data set of the same source.
The next experiment deals with T4, 6×His tagged human CD39 (human, UniProt P49961 38-478).
T4 construct: Analyte in the Biacore assay
T4 sequence: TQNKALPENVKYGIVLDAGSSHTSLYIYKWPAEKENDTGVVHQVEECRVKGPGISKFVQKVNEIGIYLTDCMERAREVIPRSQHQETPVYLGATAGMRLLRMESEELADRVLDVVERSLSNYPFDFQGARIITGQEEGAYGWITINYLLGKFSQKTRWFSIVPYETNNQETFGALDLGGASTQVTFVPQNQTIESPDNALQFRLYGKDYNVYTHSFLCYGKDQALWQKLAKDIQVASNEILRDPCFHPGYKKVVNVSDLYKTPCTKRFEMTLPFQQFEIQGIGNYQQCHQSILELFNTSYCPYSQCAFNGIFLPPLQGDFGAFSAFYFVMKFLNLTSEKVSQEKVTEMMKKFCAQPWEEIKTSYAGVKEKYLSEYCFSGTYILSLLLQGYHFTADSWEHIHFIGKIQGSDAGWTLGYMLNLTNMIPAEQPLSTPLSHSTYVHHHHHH
As to the kind of experiment: Biacore SPR, antibody captured on CM5 chip, His-tagged CD39 as analyte. On the procedure: In particular, humanized antibodies hu23.H5L5, hu23.201, hu14.H1L1 and reference antibodies 1394 and T895 were characterized for binding affinity against human CD39 using Biacore (GE). Briefly the antibodies to be tested were captured to CM5 chip (GE) using Human Antibody Capture Kit (GE). The antigen of 6×His tagged human CD39 was serially diluted for multiple doses and injected at 30 μl/min for 180s. Buffer flow was maintained for dissociation of 400s. 3 M MgCl2 was used for chip regeneration. The association and dissociation curves were fit with 1:1 binding model, and the Ka/Kd/KD values for each antibody were calculated.
(Surface plasmon resonance follows binding to a sensor surface in real time, without labels.)

B1: mAb19 (antibody, V domains shown)
VH: EVKLEKSGGGLVQPGGSMKLSCVASGFTFSNYWMNWVRQSPEKGLEWVAQIRLNPDNYATHYAESVKGRFTISRDDYKNSVYLQMSSLRAEDSGIYYCTQHGSRGFAYWGQGTLVTVS
VL: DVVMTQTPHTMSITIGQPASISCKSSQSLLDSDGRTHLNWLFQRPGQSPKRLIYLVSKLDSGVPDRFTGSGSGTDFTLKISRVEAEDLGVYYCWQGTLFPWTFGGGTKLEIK
notes: mouse hybridoma antibody
In the case of B1, the blocking percentage in [1] was 83%; in [3], 6%; in experiment [5] it was 91%; in [7] it was 23%; in [9] it was 96%. Also, the binding result in experiment [2] is “no binding (tested: 30 µg/ml highest concentration)”. The “SK-MEL-28 cell based ATPase inhibition % at 10 nM” value in experiment [4] was 65%. The concentration for a half-maximal effect (EC50) in experiment [6] was 4.5 nM; in [8], 5.8 nM; in [10] it was 46 nM.

B2: mAb21 (antibody, V domains shown)
VH: EVKLEKSGGGLVQPGGSMKLSCVASGFTFSNYWMNWVRQSPEKGLEWVAQIRLNPDNYATHFAESVKGRFTISRDDSKNSVYLQMNSLRAEDTGIYYCTEHGTRGFAYWGQGTLVTVSE
VL: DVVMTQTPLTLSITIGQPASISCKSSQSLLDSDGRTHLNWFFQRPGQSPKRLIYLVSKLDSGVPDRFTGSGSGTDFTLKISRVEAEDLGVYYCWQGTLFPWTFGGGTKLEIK
notes: mouse hybridoma antibody
Take B2: the blocking percentage in experiment [1] is 90%; in [3], 20%; in experiment [5], 97%; in experiment [7], 24%; in experiment [9], 98%. For the same molecule, the binding result in experiment [2] is reported as “no binding (tested: 30 µg/ml highest concentration)”. Besides, the “SK-MEL-28 cell based ATPase inhibition % at 10 nM” value in experiment [4] was 70%. Moreover, the results for the EC50 in experiment [6], in [8] and in experiment [10] were 6.7 nM, 11 nM and 90 nM, respectively.

B3: hu23.201 (antibody, V domains shown)
VH: QVQLVQSGAEVKKPGASVKVSCKASGYTLKDTFLHWVRQAPGQRLEWMGRIDPANGNIKYDPKFQGRVTLTADTSSNTAYMELSSLRSEDTAVYYCANSPYYYGSGYRIFDVWGQGTLVTVSS
VL: EIVLTQSPATLSLSPGERATLSCSAFSSVNYMHWYQQKPGQSPRLLIYTTSNLASGIPARFSGSGSGTDYTLTISSLEPEDFAVYYCQQRSTYPFTFGQGTKLEIK
notes: humanized c23 by yeast display
In turn, B3 came in with a half-maximal effective concentration (EC50) in experiment [11] of 1.29 nM. For the same molecule, the “ATPase inhibition IC50 on SK-MEL-28 cells” value in [12] is 0.264 nM. In the experiment with 6×His tagged human CD39, this molecule displayed a Kd of 24 nM, a koff of 0.00162 s⁻¹ and a kon of 67500 M⁻¹ s⁻¹.

One may read the EC50 as the concentration that produces a half-maximal response. Read a high EC50 as weaker potency. The Kd is the constant that tells how readily two partners part at equilibrium. In general, koff refers to the first-order rate constant of dissociation. Lower therefore signals a long-lived complex. In general, kon refers to the second-order rate constant of association. A lower kon goes with slow association.
